Assay results reported in the supplement of paper PMC9732359.
± gives the uncertainty stated by the source.

Assay: protein stability index of a GFP-peptide fusion (yeast GPS) (PSI 1-4); higher = more stable; sorted into four equal gates, so the index is relative within each strain
Outline: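 The protein stability index of a peptide was calculated by multiplying its read frequency in each gate by that gate's number and adding the products. The peptides were tiled 17-residue stretches of yeast proteins, fused downstream of GFP on a Cherry-expressing plasmid and carried in yeast as a pooled library. Mid-log cultures in leucine-free medium were sorted into four equal gates by GFP/Cherry ratio, and each gate's plasmids were PCR-amplified and Illumina-sequenced.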

Sequence: KLYDKTENDIKALQSIG [RPT4]
- protein stability index (doa10∆): 2.65 ± 0.18
- protein stability index (pdr5∆): 2.62 ± 0.2
- protein stability index (san1∆): 1.87 ± 0.22
- protein stability index (ubr1∆): 2.4 ± 0.22

Sequence: ATNRVDVLDPALLRSGR [RPT5]
- protein stability index (doa10∆): 3.13 ± 0.12
- protein stability index (pdr5∆): 2.84 ± 0.11
- protein stability index (san1∆): 3.04 ± 0.085
- protein stability index (ubr1∆): 2.94 ± 0.075

Sequence: EGIKVVDIDDPDMMVDS [SNF2]
- protein stability index (doa10∆): 3 ± 0.17
- protein stability index (pdr5∆): 3.14 ± 0.19
- protein stability index (san1∆): 3.12 ± 0.094
- protein stability index (ubr1∆): 2.97 ± 0.091

Sequence: DLSRIMDWLDNWGRKEH [ITC1]
- protein stability index (doa10∆): 3.31 ± 0.2
- protein stability index (pdr5∆): 3.33 ± 0.26
- protein stability index (san1∆): 3.48 ± 0.14

Sequence: NGVVIATEKKSSSPLAM [PRE8]
- protein stability index (doa10∆): 2.91 ± 0.19
- protein stability index (pdr5∆): 3 ± 0.17
- protein stability index (san1∆): 2.55 ± 0.26
- protein stability index (ubr1∆): 3.07 ± 0.11

Sequence: FQFFPKELDALQEKEQL [ISW2]
- protein stability index (doa10∆): 2.79 ± 0.066
- protein stability index (pdr5∆): 2.97 ± 0.074
- protein stability index (san1∆): 3.04 ± 0.043
- protein stability index (ubr1∆): 2.97 ± 0.06

Sequence: GSKSASKQTPQPKAPRA [ISW2]
- protein stability index (doa10∆): 3.08 ± 0.076
- protein stability index (pdr5∆): 3.17 ± 0.12
- protein stability index (san1∆): 2.76 ± 0.1
- protein stability index (ubr1∆): 3.23 ± 0.08

Sequence: KALKTNINFASGVKNDI [CDC53]
- protein stability index (doa10∆): 3.09 ± 0.089
- protein stability index (pdr5∆): 3.22 ± 0.068
- protein stability index (san1∆): 2.83 ± 0.095
- protein stability index (ubr1∆): 3.04 ± 0.074

Sequence: YKLFIWLVVPTIYNLQH [YML031W/NDC1]
- protein stability index (doa10∆): 1.36 ± 0.033
- protein stability index (pdr5∆): 1.51 ± 0.032
- protein stability index (san1∆): 1.36 ± 0.059
- protein stability index (ubr1∆): 1.26 ± 0.029

Sequence: EIELKKLPKVYKRSIVR [SWI1]
- protein stability index (doa10∆): 2.11 ± 0.069
- protein stability index (pdr5∆): 1.86 ± 0.071
- protein stability index (san1∆): 2.68 ± 0.099
- protein stability index (ubr1∆): 2.91 ± 0.074

Sequence: SLSDNDLAVCATIIGII [ECM29]
- protein stability index (doa10∆): 2.71 ± 0.072
- protein stability index (pdr5∆): 2.83 ± 0.056
- protein stability index (san1∆): 2.78 ± 0.053
- protein stability index (ubr1∆): 2.75 ± 0.038

Sequence: SFLKVDPDLGLDLMFDE [YJL039C/NUP192]
- protein stability index (doa10∆): 3.3 ± 0.083
- protein stability index (pdr5∆): 3.3 ± 0.09
- protein stability index (san1∆): 3.04 ± 0.087
- protein stability index (ubr1∆): 3.06 ± 0.091

Sequence: GHDADDGYQLFHAEPSG [PUP2]
- protein stability index (doa10∆): 3.37 ± 0.19
- protein stability index (pdr5∆): 2.97 ± 0.18
- protein stability index (san1∆): 3.42 ± 0.079
- protein stability index (ubr1∆): 3.1 ± 0.14

Sequence: LYPCYFDINRSHKEGRR [SEC65]
- protein stability index (doa10∆): 1.15 ± 0.17
- protein stability index (pdr5∆): 1.93 ± 0.16
- protein stability index (san1∆): 1.09 ± 0.24
- protein stability index (ubr1∆): 1.1 ± 0.08

Sequence: LDEVDAALDITNVQRIA [SMC1]
- protein stability index (doa10∆): 3.16 ± 0.096
- protein stability index (pdr5∆): 3.06 ± 0.098
- protein stability index (san1∆): 3.14 ± 0.1
- protein stability index (ubr1∆): 3.16 ± 0.087

Sequence: SSVYRLKFAVQVDKVTK [RPL26A]
- protein stability index (doa10∆): 1.67 ± 0.16
- protein stability index (san1∆): 2.71 ± 0.24
- protein stability index (ubr1∆): 2.78 ± 0.27

Sequence: GKTGLSNMILGSVELST [YML103C/NUP188]
- protein stability index (doa10∆): 2.24 ± 0.056
- protein stability index (pdr5∆): 2.57 ± 0.086
- protein stability index (san1∆): 2.34 ± 0.069
- protein stability index (ubr1∆): 2.33 ± 0.042

Sequence: TLSNGLIASHYGVSFFT [BRR2]
- protein stability index (doa10∆): 2.74 ± 0.055
- protein stability index (pdr5∆): 2.84 ± 0.045
- protein stability index (san1∆): 2.39 ± 0.059
- protein stability index (ubr1∆): 2.83 ± 0.04

Sequence: LQYTALTGSPNNPLVQK [ARP7]
- protein stability index (doa10∆): 2.66 ± 0.07
- protein stability index (pdr5∆): 2.7 ± 0.064
- protein stability index (san1∆): 2.34 ± 0.078
- protein stability index (ubr1∆): 2.95 ± 0.045

Sequence: SENVFEGLTYKYPARRI [SSN3]
- protein stability index (doa10∆): 3.18 ± 0.11
- protein stability index (pdr5∆): 3 ± 0.17
- protein stability index (san1∆): 2.62 ± 0.17
- protein stability index (ubr1∆): 2.86 ± 0.089

Sequence: DHILFTKTFIFIYKKVL [SRB8]
- protein stability index (doa10∆): 1.49 ± 0.091
- protein stability index (pdr5∆): 1.14 ± 0.14
- protein stability index (san1∆): 1.15 ± 0.13
- protein stability index (ubr1∆): 1.11 ± 0.044

Sequence: ASKKSGGDVVKFQKLLQ [SMC4]
- protein stability index (doa10∆): 3.42 ± 0.15
- protein stability index (pdr5∆): 3.64 ± 0.12
- protein stability index (san1∆): 3.19 ± 0.13
- protein stability index (ubr1∆): 3.4 ± 0.17

Sequence: GKPSFVFGASDKQAEGT [YOR098C/NUP1]
- protein stability index (doa10∆): 3.33 ± 0.13
- protein stability index (pdr5∆): 3.07 ± 0.12
- protein stability index (san1∆): 3.07 ± 0.12
- protein stability index (ubr1∆): 3.29 ± 0.087

Sequence: QFLRLIFVSILSDRANK [ARP9]
- protein stability index (doa10∆): 1.64 ± 0.065
- protein stability index (pdr5∆): 1.65 ± 0.075
- protein stability index (san1∆): 2.18 ± 0.087
- protein stability index (ubr1∆): 1.2 ± 0.027

Sequence: IEPVTKVSSLKMFIQRI [YCS4]
- protein stability index (doa10∆): 2.91 ± 0.064
- protein stability index (pdr5∆): 2.9 ± 0.065
- protein stability index (san1∆): 3.17 ± 0.048
- protein stability index (ubr1∆): 3.31 ± 0.065

Sequence: GQLEDFDSELIHLKQKL [SMC3]
- protein stability index (pdr5∆): 2.89 ± 0.16
- protein stability index (san1∆): 3.23 ± 0.15
- protein stability index (ubr1∆): 2.95 ± 0.17
